Measurements published in US20040171019A1, “PIN1 peptidyl-prolyl isomerase polypeptides, their crystal structures, and use thereof for drug design” (Agouron Pharmaceuticals, Inc., priority 2002, published 2004).

Target: 6His-PPIase domain of PIN1 (human) (UniProt Q13526)
Experiment: fluorescence polarization competition; free Pintide displaces fluorescein-tagged Pintide from the 6His-PPIase domain of PIN1

IC50: 7 to 10 µM
Substance: Pintide (WFYpSPFLE) without the fluorescein tag (peptide)
